Measured values taken from PMC5481773, “Structural insights into the function of ZRANB3 in replication stress response” (Nature Communications, 2017).

Biological target: T1, His-tagged Proliferating Cell Nuclear Antigen (PCNA) (human, UniProt P12004 1-261)
T1 construct: human PCNA, cloned into the NdeI and XhoI sites of pET28a for expression with an N-terminal His-tag; Used for ITC and for the peptide pull-downs; also called His-tagged PCNA; His-tagged recombinant PCNA; source: E. coli, from pET28a, purified (Ni-NTA, Q-sepharose, Superdex S-200); not shown: His tag, N-terminal, kept
T1 sequence (P12004 whole entry): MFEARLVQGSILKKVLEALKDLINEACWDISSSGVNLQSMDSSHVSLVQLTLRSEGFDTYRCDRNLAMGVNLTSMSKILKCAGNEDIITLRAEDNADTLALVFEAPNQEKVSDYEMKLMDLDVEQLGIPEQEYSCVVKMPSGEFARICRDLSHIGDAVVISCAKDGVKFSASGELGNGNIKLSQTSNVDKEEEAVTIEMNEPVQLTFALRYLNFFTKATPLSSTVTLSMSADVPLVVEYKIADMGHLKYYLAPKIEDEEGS
Test: ITC; 15 μM PCNA in the cell, peptides injected stepwise (20 injections of 2 μl), 25 °C, PBS with 1 mM β-mercaptoethanol, single set of independent binding sites model
Settings: both partners purified

Kd [µM]	stoichiometry N [peptide per PCNA monomer]	Binder
4.8	1	EKEKQHDIRSFFVPQ [ZRANB3 PIP box synthetic peptide used for ITC]
9.24	1	SKHGSDITRFLVKK [ZRANB3 APIM motif synthetic peptide used for ITC]
